Results as given in patent US20180171001A1.

Experiments:
Test in all cases: cell-based or functional assay
[1] = molecular target: Env of HIV-1 strain 3016.v5.c45 (HIV-1)
Env of MuLV = molecular target: Env of MuLV
[2] = molecular target: Env of HIV-1 strain 231965.c1 (HIV-1)
[3] = molecular target: Env of HIV-1 strain PVO.4 (HIV-1)
[4] = molecular target: Env of HIV-1 strain ZM53M.PB12 (HIV-1)
[5] = molecular target: Env of HIV-1 strain YU2.DG (HIV-1)
[6] = molecular target: Env of HIV-1 strain 3365.v2.c20 (HIV-1)
[7] = molecular target: Env of HIV-1 strain X1254_c3 (HIV-1)
[8] = molecular target: Env of HIV-1 strain REJO4541.67 (HIV-1)
[9] = molecular target: Env of HIV-1 strain ZM109F.PB4 (HIV-1)
[10] = molecular target: Env of HIV-1 strain 250-4 (HIV-1)
[11] = molecular target: Env of HIV-1 strain R1166.c1 (HIV-1)
[12] = molecular target: Env of HIV-1 strain 3415.v1.c1 (HIV-1)
[13] = molecular target: Env of HIV-1 strain 251-18 (HIV-1)
[14] = molecular target: Env of HIV-1 strain H086.8 (HIV-1)
[15] = molecular target: Env of HIV-1 strain Du172.17 (HIV-1)

Binder | neutralization IC50 [1] | neutralization IC50 (Env of MuLV) | neutralization IC50 [2] | neutralization IC50 [3] | neutralization IC50 [4] | neutralization IC50 [5] | neutralization IC50 [6] | neutralization IC50 [7] | neutralization IC50 [8] | neutralization IC50 [9] | neutralization IC50 [10] | neutralization IC50 [11] | neutralization IC50 [12] | neutralization IC50 [13] | neutralization IC50 [14] | neutralization IC50 [15]
γ20κ3 (antibody, V domains shown) VH: QIHLVQSGTEVKKPGSSVAVSCKAYGVNTFGLYAVNWVRQAPGQSLEYIGQIWRWKSSASHDFRGRVIISAVDLTGSSPPISSLEIKNLTSDDTAVYFCTATSTPDYWSGLHHDGVMAFSSWGQGTLISVSA VL: DIQMTQSPSTLSASIGDTVRISCRASQSITGNWLAWYHQRPGKAPRLLIYRGSRLLGGVPSRFSGSAAGTDFTLTIANLQAEDFGTFYCQQYDTYPGTFGQGTKVEVKR | > 15 µg/mL | > 21 µg/mL | > 15 µg/mL | > 15 µg/mL | > 15 µg/mL | > 15 µg/mL | > 15 µg/mL | 14.7 µg/mL | > 15 µg/mL | > 15 µg/mL | > 15 µg/mL | > 15 µg/mL | > 15 µg/mL | > 15 µg/mL | > 15 µg/mL | > 15 µg/mL
γ46κ5 (antibody, V domains shown) VH: QIHLVQSGTEVKKPGSSVTVSCKAYGVNTFGLYAVNWVRQAPGQGLEYIGQIWRWKSSASHHFRGRVLISAVDLTGSSPPISSLEIKNVTSDDTAVYFCTTTSTYDKWSGLHHDGVVAFSSWGQGTLISVSA VL: DIQMTQSPSTLSASTGDTVRISCRASQSITGNWVAWYQQRPGKAPRLLIYRGAALLGGVPSRFRGSAAGTDFTLTIGNLQAEDFGTFYCQQYDTYPGTFGQGTKVEVKR | 0.111 µg/mL | – | 0.525 µg/mL | 0.129 µg/mL | 12.4 µg/mL | 0.553 µg/mL | > 15 µg/mL | 1.79 µg/mL | 0.196 µg/mL | > 15 µg/mL | > 15 µg/mL | 0.922 µg/mL | > 15 µg/mL | 0.609 µg/mL | 1.75 µg/mL | > 15 µg/mL
γ15κ3 (antibody, V domains shown) VH: QIHLVQSGTEVKKPGSSVTVSCKAYGVNTFGLYAVNWVRQAPGQSLEYIGQIWRWKSSASHHFRGRVIISAVDLTGSSPPISSLEIKNLTSDDTAVYFCTTASTYDKWSGLHHDGVMAFSSWGQGTLISVSA VL: DIQMTQSPSTLSASIGDTVRISCRASQSITGNWLAWYHQRPGKAPRLLIYRGSRLLGGVPSRFSGSAAGTDFTLTIANLQAEDFGTFYCQQYDTYPGTFGQGTKVEVKR | 1.26 µg/mL | > 30 µg/mL | 1.61 µg/mL | 5.32 µg/mL | > 15 µg/mL | 1.07 µg/mL | > 15 µg/mL | 3.49 µg/mL | > 15 µg/mL | > 15 µg/mL | > 15 µg/mL | 3.94 µg/mL | > 15 µg/mL | > 15 µg/mL | > 15 µg/mL | > 15 µg/mL
γ52κ3 (antibody, V domains shown) VH: QIHLVQSGTEVKKPGSSVTVSCKAYGVNTFGLYAVNWVRQAPGQSLEYIGQIWRWKSSASHHFRGRVLISAVDLTGSSPPISSLEIKNLTSDDTAVYFCTTTSTYDRWSGLHHDGVMAFSSWGQGTLISVSA VL: DIQMTQSPSTLSASIGDTVRISCRASQSITGNWLAWYHQRPGKAPRLLIYRGSRLLGGVPSRFSGSAAGTDFTLTIANLQAEDFGTFYCQQYDTYPGTFGQGTKVEVKR | 3.05 µg/mL | > 30 µg/mL | 6.59 µg/mL | 1.92 µg/mL | > 15 µg/mL | 5.75 µg/mL | > 15 µg/mL | > 15 µg/mL | > 15 µg/mL | > 15 µg/mL | > 15 µg/mL | 23.4 µg/mL | > 15 µg/mL | 14.5 µg/mL | > 15 µg/mL | > 15 µg/mL
γ22κ3 (antibody, V domains shown) VH: QIHLVQSGTEVKKPGSSVTVSCKAYGVNTFGLYAVNWVRQAPGQSLEYIGQIWRWKSSASHHFRGRVLISAVDLTGPSPPISSLEIKNLTSDDTAVYFCTTTSTYDKWSGLHHDGVMAFSSWGQGTLISVSA VL: DIQMTQSPSTLSASIGDTVRISCRASQSITGNWLAWYHQRPGKAPRLLIYRGSRLLGGVPSRFSGSAAGTDFTLTIANLQAEDFGTFYCQQYDTYPGTFGQGTKVEVKR | > 15 µg/mL | – | > 15 µg/mL | > 15 µg/mL | > 15 µg/mL | > 15 µg/mL | > 15 µg/mL | > 15 µg/mL | > 15 µg/mL | > 15 µg/mL | > 15 µg/mL | > 15 µg/mL | > 15 µg/mL | > 15 µg/mL | > 15 µg/mL | > 15 µg/mL
